Patent US20190201542A1 (AbbVie / Abbott, published 2019)
Numbering of substitutions follows the chain as printed. Each block holds one binder with its values, some of them ahead of it.

Assays:
[1] = molecular target: T1, human DLL3 (human, UniProt Q9NYJ7 27-492, limits assumed); assay: surface plasmon resonance
T1 construct: also called hDLL3; DLL3 protein
T1 sequence: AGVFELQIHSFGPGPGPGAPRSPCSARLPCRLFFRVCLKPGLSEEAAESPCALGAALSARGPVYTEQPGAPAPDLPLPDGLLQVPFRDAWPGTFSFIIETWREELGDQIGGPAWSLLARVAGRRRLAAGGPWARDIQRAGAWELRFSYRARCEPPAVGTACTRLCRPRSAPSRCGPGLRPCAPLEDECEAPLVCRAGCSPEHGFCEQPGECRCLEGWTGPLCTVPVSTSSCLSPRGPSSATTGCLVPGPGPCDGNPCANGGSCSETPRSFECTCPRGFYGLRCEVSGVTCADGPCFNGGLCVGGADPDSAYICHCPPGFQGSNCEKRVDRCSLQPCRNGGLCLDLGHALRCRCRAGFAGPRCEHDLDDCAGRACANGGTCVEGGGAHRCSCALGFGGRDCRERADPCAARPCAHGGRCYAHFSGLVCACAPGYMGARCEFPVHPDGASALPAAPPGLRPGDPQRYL

[2] = molecular target: T2, DLL3 extracellular domain (amino acids 27-466) (human, UniProt Q9NYJ7 27-466); assay: fine epitope mapping (phage display peptides or yeast display of DLL3 ECD mutants)
T2 construct: also called DLL3 ECD; wild type DLL3 ECD
T2 sequence: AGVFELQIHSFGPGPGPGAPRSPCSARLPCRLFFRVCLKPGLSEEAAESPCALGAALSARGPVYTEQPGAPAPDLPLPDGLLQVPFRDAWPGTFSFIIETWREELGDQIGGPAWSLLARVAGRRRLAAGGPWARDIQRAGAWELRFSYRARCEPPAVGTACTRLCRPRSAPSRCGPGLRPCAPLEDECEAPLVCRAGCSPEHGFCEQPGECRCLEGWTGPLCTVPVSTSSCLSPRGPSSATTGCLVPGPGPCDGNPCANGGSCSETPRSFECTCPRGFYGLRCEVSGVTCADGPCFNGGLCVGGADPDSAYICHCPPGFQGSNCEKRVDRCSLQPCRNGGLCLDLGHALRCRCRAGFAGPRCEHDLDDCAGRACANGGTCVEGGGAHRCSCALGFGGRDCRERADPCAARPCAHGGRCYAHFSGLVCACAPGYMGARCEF
Protocol: Fine epitope mapping was further performed on selected antibodies using one of two methods. The first method employed the Ph.D.-12 phage display peptide library kit (New England Biolabs) which was used in accordance with the manufacturer's instructions. The antibody for epitope mapping was coated overnight at 50 μg/mL in 3 mL 0.1 M sodium bicarbonate solution, pH 8, onto a Nunc MaxiSorp tube (Nunc). The tube was blocked with 3% BSA solution in bicarbonate solution. Then, […] input phage in PBS+0.1% Tween-20 was allowed to bind, followed by ten consecutive washes with 0.1% Tween-20 to wash away non-binding phage. Remaining phage were eluted with 1 mL 0.2 M glycine for 10 minutes at room temperature with gentle agitation, followed by neutralization with 150 μL 1M Tris-HCl pH 9. Eluted phage were amplified and panned again with 10¹¹ input phage, using 0.5% Tween-20 during the wash steps to increase selection stringency. DNA from 24 plaques of the eluted phage from the second round was isolated using the Qiaprep M13 Spin kit (Qiagen) and sequenced. Binding of clonal phage was confirmed using an ELISA assay, where the mapped antibody or a control antibody was coated onto an ELISA plate, blocked, and exposed to each phage clone. Phage binding was detected using horseradish peroxidase conjugated anti-M13 antibody (GE Healthcare), and the 1-Step Turbo TMB ELISA solution (Pierce). Phage peptide sequences from specifically binding phage were aligned using Vector NTI (Life Technologies) against the antigen ECD peptide sequence to determine the epitope of binding.
Alternatively, a yeast display method (Chao et al., 2007, PMID: 17406305) was used to map the epitopes of selected antibodies. Libraries of DLL3 ECD mutants were generated with error prone PCR using nucleotide analogues 8-oxo-2′deoxyguanosine-5′-triphosphate and 2′-deoxy-p-nucleoside-5′triphosphate (TriLink Bio) for a target mutagenesis rate of one amino acid mutation per clone. These were transformed into a yeast display format. […]

[3] = molecular target: T1, human DLL3; assay: screen on immobilized hDLL3 or h293-hDLL3 cells
In short: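 Solid-phase ELISA on DLL3-His (0.5 μg/ml coating), developed with HRP anti-mouse IgG and TMB and read at OD 450, was one screen for supernatants of single-cell hybridomas from human DLL3-immunized mice taken after 10 days in culture. Flow-cytometry binding counted as positive only above the control.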

[4] = molecular target: T3, human ASCL1 (human, UniProt P50553 1-236, limits assumed); assay: screen on immobilized hASCL1 or h293-hASCL1 cells
T3 construct: Transcription factor; also called hASCL1; immobilized human ASCL1
T3 sequence (looked up): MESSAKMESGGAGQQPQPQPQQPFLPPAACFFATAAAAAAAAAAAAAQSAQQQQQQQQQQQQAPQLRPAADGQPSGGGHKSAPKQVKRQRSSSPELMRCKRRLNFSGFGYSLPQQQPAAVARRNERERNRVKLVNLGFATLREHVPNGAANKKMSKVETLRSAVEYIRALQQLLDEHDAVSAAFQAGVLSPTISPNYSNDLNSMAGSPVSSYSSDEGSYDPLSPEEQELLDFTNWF

[5] = molecular target: T4, hASCL1 in 293 cells engineered to express ASCL1 (293-ASCL1) (human, UniProt P50553 1-236); assay: immunohistochemistry on FFPE sections, antibody at 10 ug/ml
T4 construct: whole, on cells; also called DDDK-tagged hASCL1 from pLMEGPA-hASCL1-NFlag
T4 sequence (looked up): T3 sequence (looked up)
Protocol: IHC was performed essentially as follows. Planar sections of formalin fixed and paraffin embedded (FFPE) tissues were cut and mounted on glass microscope slides. After xylene de-paraffinization 5 μm sections were pre-treated with Antigen Retrieval Solution (Dako) for 20 mins. at 99° C., cooled to 75° C. and then treated with 0.3% hydrogen peroxide in PBS followed by Avidin/Biotin Blocking Solution (Vector Laboratories). FFPE slides were then blocked with 10% horse serum in 3% BSA in PBS buffer and incubated with a primary anti-ASCL1 antibody (clone SC72.2), diluted to 10 μg/ml in 3% BSA/PBS, for 30 mins. at room temperature. The FFPE slides were incubated with biotin-conjugated horse anti-mouse antibody (Vector Laboratories), diluted to 2.5 μg/ml in 3% BSA/PBS, for 30 mins. at room temperature followed by incubation in streptavidin-HRP (ABC Elite Kit; Vector Laboratories). Chromogenic detection was developed with 3,3′-diaminobenzidine (Thermo Scientific) for 5 mins. at room temperature and tissues were counterstained with Meyer's hematoxylin (IHC World), washed with alcohol and immersed in xylene. Sections were then viewed by brightfield microscopy and ASCL1 expression was noted.
PDX tumors were stained by IHC (FIG. 12) and ASCL1 protein expression by IHC correlates with the expected ASCL1 mRNA expression based on microarray results.

binding result [1]: binds
B1: chimeric SC16.15 (antibody, human IgG1, kappa, V domains shown)
VH: QVQLQQSGAELAKPGASVKMSCKASGYTFTRYWIHWIKQRPGQGLEWIGYINPTTVYTEFNQNFKDKATLTADKSSTTASMQLSSLTSEDSAVYYCARGGSNFFDYWGQGTTLTVSS
VL: DIQMTQSPASLAASVGETVAITCRASENIYYNLAWYQQKQGKSPQLLIYTANSLEDGVPSRFSGSGSGTQYSLKINSMQPEDSATYFCKQAYDVPPTFGGGTKLEIKR
notes: murine V regions on human IgG1/kappa; also called chimeric parent antibody of hSC16.15

binding result [2]: binds
binding result [3]: binds
B2: SC16.34 (antibody, V domains shown)
VH: QIQLVQSGPELKRPGETVKISCKASGYTFTNYGMNWVKQAPGKGLKWMGWINTYTGDPTYADDFKGRFAFSLETSASTAYLQINNLKNEDTATYFCARIGGNSPSDYWGQGTSLTVSS
VL: SIVMTQTPKFLLVSAGDRVTITCKASQSVSNDVAWYQQKPGQSPKLLIYYASNRYSGVPDRFTGSGYGTDFTFTISTVQAEDLAVYFCQQDYSSPWTFGGGTKLEIK
notes: murine mAb

binding result [2]: binds
binding result [3]: binds
B3: SC16.56 (antibody, V domains shown)
VH: B2 VH with R13K, G49A, D57E, Y80S, N84I, G101D, N102S, S113T
VL: B2 VL with A34V, S56T, T63A, T72S, S93T, K107R
notes: murine mAb

binding result [1]: binds
B4: hSC16.25 (antibody, human IgG1, kappa, V domains shown)
VH: QITLKESGPTLVKPTQTLTLTCTFSGFSLSTSGMGVGWIRQPPGKALEWLTDIWWDDNKYYNPSLKSRLTITKDTSKNQVVLTMTNMDPVDTATYYCARRVNYYYDPYYAMDYWGQGTLVTVSS
VL: EIVLTQSPDFQSVTPKEKVTITCSASSSVSYMHWYQQKPDQSPKLLIKDSSKLASGVPSRFSGSGSGTDFTLTINSLEAEDAATYYCQQWSSNPLTFGQGTKLEIKR
notes: humanized IgG1/kappa; also called humanized SC16.25

binding result [1]: binds
B5: hSC16.15 (antibody, human IgG1, kappa, V domains shown)
VH: QVQLVQSGAEVKKPGASVKVSCKASGYTFTRYWIHWIRQAPGQGLEWMGYINPTTVYTEFNQNFKDRVTMTRDTSTSTVYMELSSLRSEDTAVYYCARGGSNFFDYWGQGTTVTVSS
VL: AIQLTQSPSSLSASVGDRVTITCRASENIYYNLAWYQQKPGKAPKLLIYTANSLEDGVPSRFSGSGSGTDFTLTISSLQPEDFATYFCKQAYDVPPTFGGGTKLEIKR
notes: humanized IgG1/kappa; also called humanized SC16.15

binding result [2]: binds
binding result [3]: binds
B6: SC16.23 (antibody, V domains shown)
VH: QVTLKESGPGILQPSQTLSLTCSFSGFSLSTSNTGIGWIRQPSGTGLEWLAHIWWNDDKYYNPSLKSRLTISKETSNNQVFLKITNVDTADTASYFCVQIGRDYSNYAWYFDVWGAGTTVTVSS
VL: QIVLTQSPAIMSASPGEKVTLTCSASSSVSSRYLYWYQQKPGSSPKLWIYSTSNLASGVPARFSGSGSGTSYSLIISSMEAEDAASYFCHQWSNYPLTFGAGTKLELK
notes: murine mAb

binding result [1]: binds
B7: hSC16.34 (antibody, human IgG1, kappa, V domains shown)
VH: QVQLVQSGAEVKKPGASVKVSCKASGYTFTNYGMNWVRQAPGQRLEWMGWINTYTGDPTYADDFKGRVTITRDTSASTAYMELSSLRSEDTAVYYCARIGGNSPSDYWGQGTTVTVSS
VL: DIQMTQSPSSLSASVGDRVTITCKASQSVSNDVAWYQQKPGKVPKLLIYYASNRYSGVPSRFSGSGSGTDFTLTISSLQPEDVATYFCQQDYSSPWTFGGGTKVEIKR
notes: humanized IgG1/kappa; also called humanized SC16.34

binding result [1]: binds
B8: hSC16.56 (antibody, human IgG1, kappa, V domains shown)
VH: B7 VH with R44G, D57E, I70M, R72T, A76T, S84R, E89D, G101D, N102S, T113L
VL: EIVMTQSPATLSVSPGERATLSCKASQSVSNDVVWYQQKPGQAPRLLIYYASNRYTGIPARFSGSGSGTEFTLTISSLQSEDFAVYYCQQDYTSPWTFGQGTKLEIKR
notes: humanized IgG1/kappa; also called humanized SC16.56

binding result [4]: binds
binding result [5]: binds
B9: SC72.2 (antibody, V domains shown)
VH: QVQLQQSGAELVRPGASVTLSCKASGYTFIDYEMHWVKQTPVHGLEWIGAIDPETGGTTYNQNFKGKATLTADKSSNTAYMELRSLTSGDSAVYYCSRGGLDYWGQGTTLTVSS
VL: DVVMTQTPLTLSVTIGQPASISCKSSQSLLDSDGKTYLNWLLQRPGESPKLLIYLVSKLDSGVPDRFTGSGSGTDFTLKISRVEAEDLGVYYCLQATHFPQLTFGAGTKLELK
notes: murine mAb; also called anti-ASCL1 antibody clone SC72.2
